Among the data in PMC3342256 are stoichiometry N values, retold here.

The target in test [1] is Plasmodium falciparum P2 (PfP2), recombinant histidine-tagged full length protein (Plasmodium falciparum) (UniProt O00806). Description: multi-angle light scattering; PfP2 250 to 400 µM, freshly prepared sample, HELEOS 8 Wyatt instrument, BSA as standard.
Test [2] has the same target. The experiment in a line: dynamic light scattering; PfP2 40 to 180 µM in Tris buffer, pH 7.5, 25°C, freshly prepared samples; size from a calibration of hydrodynamic diameter against molecular weight.

Usually stoichiometry N stands for a count of units in the complex or per binding partner. Regarding “Plasmodium falciparum P2 (PfP2), recombinant histidine-tagged full length protein (from UniProt O00806 1-112) (natural protein)”, the stoichiometry N was 7 to 8 in test [1] and 8 to 9 in test [2].
